Where a chain is given by its changes, count along the chain named. Names and notes keep the numbering of the source.
What was measured:
[1] = target: T1, p75 MLL test substrate, wild type (MLL aa 2,400 to 2,900, N-terminal Myc tag, C-terminal Flag tag), Q03164
T1 chain: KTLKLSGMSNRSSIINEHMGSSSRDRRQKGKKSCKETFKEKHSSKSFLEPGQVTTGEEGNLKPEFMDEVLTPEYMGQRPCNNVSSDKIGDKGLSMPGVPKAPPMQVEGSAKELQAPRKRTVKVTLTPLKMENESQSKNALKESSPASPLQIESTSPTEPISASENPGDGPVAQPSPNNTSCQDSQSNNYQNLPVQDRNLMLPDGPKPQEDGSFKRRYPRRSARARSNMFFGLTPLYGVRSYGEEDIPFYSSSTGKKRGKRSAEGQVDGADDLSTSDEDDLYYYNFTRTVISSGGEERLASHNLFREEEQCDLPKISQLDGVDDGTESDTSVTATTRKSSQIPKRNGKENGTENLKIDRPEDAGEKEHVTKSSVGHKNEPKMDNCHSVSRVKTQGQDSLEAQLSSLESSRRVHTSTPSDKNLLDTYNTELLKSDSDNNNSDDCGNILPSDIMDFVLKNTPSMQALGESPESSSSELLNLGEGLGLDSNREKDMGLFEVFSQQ

[2] = target: T2, p75 MLL substrate with mutant CS1/CS2 sites (MLL aa 2,400 to 2,900 of noncleavable MLL mt, Myc/Flag tagged), Q03164
T2 chain: T1 chain with D267A, G268A, D319A, G320A

[3] = target: T3, His-tagged 28 kDa alpha subunit of recombinant Taspase1 (human, UniProt Q9H6P5 1-233); test: co-purification on a TALON column of N-terminal His-tagged Taspase1 from E. coli, Coomassie-stained SDS-PAGE, Edman degradation of the 22 kDa band
T3 construct: also called 28 kDa N-terminal alpha subunit; 29 kDa alpha; not shown: N-terminal His tag from bacterial expression vector ET15b (Novagen)
T3 sequence: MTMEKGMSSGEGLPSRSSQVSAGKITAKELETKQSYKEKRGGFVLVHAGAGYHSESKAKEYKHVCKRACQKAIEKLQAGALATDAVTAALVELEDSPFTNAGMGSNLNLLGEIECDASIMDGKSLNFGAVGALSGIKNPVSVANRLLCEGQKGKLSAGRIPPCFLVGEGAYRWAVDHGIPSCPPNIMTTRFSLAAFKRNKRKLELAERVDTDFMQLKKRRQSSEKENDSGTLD
From the text: Purification of recombinant N-terminal His-tagged Taspase1 yielded an expected 50 kDa product, a His-tagged 28 kDa a subunit, and a co-purified 22 kDa polypeptide (FIG. 5A). […] Similarly when an N-terminal and C-terminal epitope tagged human Taspase1 cDNA was expressed in the human 293 T cell line, the 50 kDa product also appeared to be processed to a 28 kDa N-terminal α subunit and a 22 kDa C-terminal β subunit (FIG. 3D). […] However, the D233A mutant retained some residual enzymatic activity, although it was ˜1000 fold less efficient than the wt enzyme (FIG. 5B, middle panel). […] Thus, this MLL cleaving protease is the first endopeptidase within the Asparaginase_{—}2 family with the novel characteristic of being a threonine aspartase, Taspase1.
His-tagged Taspase1 was expressed in BL21(DE3) cells and purified with a TALON column (Clontech). N-terminal protein sequencing was performed by Molecular Biology Core Facility at the Dana-Farber Cancer Institute.

B1: Recombinant His-tagged Taspase1 D233A mutant (E. coli) (protein)
chain: MTMEKGMSSGEGLPSRSSQVSAGKITAKELETKQSYKEKRGGFVLVHAGAGYHSESKAKEYKHVCKRACQKAIEKLQAGALATDAVTAALVELEDSPFTNAGMGSNLNLLGEIECDASIMDGKSLNFGAVGALSGIKNPVSVANRLLCEGQKGKLSAGRIPPCFLVGEGAYRWAVDHGIPSCPPNIMTTRFSLAAFKRNKRKLELAERVDTDFMQLKKRRQSSEKENDSGTLATVGAVVVDHEGNVAAAVSSGGLALKHPGRVGQAALYGCGCWAENTGAHNPYSTAVSTSGCGEHLVRTILARECSHALQAEDAHQALLETMQNKFISSPFLASEDGVLGGVIVLRSCRCSAEPDSSQNKQTLLVEFLWSHTTESMCVGYMSAQDGKAKTHISRLPPGAVAGQSVAIEGGVCRLESPVN
[1]
  in vitro cleavage activity of purified recombinant mutant enzyme: ˜1000 fold less efficient than the wt enzyme

B2: Recombinant His-tagged Taspase1 T234A mutant (E. coli) (protein)
chain: B1 chain with A233D, T234A
[1]
  in vitro cleavage activity of purified recombinant mutant enzyme: threonine 234 which became the N-terminus of the β subunit is absolutely essential for cleavage activity

B3: Recombinant N-terminal His-tagged Taspase1 (rTaspase1), wild type, expressed in E. coli (protein)
chain 1: T3 sequence
chain 2: TVGAVVVDHEGNVAAAVSSGGLALKHPGRVGQAALYGCGCWAENTGAHNPYSTAVSTSGCGEHLVRTILARECSHALQAEDAHQALLETMQNKFISSPFLASEDGVLGGVIVLRSCRCSAEPDSSQNKQTLLVEFLWSHTTESMCVGYMSAQDGKAKTHISRLPPGAVAGQSVAIEGGVCRLESPVN
[2]
  in vitro cleavage of 35S-methionine labeled p75 MLL substrate: but not the CS1/2 mt substrate
[1]
  in vitro cleavage of 35S-methionine labeled p75 MLL substrate: Recombinant Taspase1 (rTaspase1) cleaved the wt p75 MLL
  in vitro cleavage, enzyme titration and time course (appearance of p47 and p42 fragments): The p47 fragment appears first, while higher enzyme concentration or more time is needed for the appearance of the p42 fragment

B4: 22 kDa beta subunit of recombinant Taspase1 (enzyme)
chain: B3 chain 2
notes: also called co-purified 22 kDa polypeptide; 22 kDa C-terminal beta subunit
[3]
  binding result: binds

From patent US20060068482A1 (Dana-Farber, published 2006)
